In PMC8329185 (2021):

Target: His6-DNAJB1 (human, UniProt P25685 1-340)
Assay: SPR

His6-DNAJB1, sequence (P25685 whole entry): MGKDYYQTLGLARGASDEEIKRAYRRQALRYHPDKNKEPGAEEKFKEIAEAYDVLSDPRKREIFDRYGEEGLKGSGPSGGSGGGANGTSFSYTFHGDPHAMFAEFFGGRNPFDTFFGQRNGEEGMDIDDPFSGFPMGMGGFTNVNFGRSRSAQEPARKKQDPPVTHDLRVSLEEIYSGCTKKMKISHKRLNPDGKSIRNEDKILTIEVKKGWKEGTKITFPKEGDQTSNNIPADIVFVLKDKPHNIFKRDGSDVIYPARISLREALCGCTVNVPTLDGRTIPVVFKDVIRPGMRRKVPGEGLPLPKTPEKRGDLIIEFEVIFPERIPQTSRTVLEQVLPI

B1: GST-TrnSR (WT, without mCherry) (natural protein)
chain: MEGAKPTLQLVYQAVQALYHDPDPSGKERASFWLGELQRSVHAWEISDQLLQIRQDVESCYFAAQTMKMKIQTSFYELPTDSHASLRDSLLTHIQNLKDLSPVIVTQLALAIADLALQMPSWKGCVQTLVEKYSNDVTSLPFLLEILTVLPEEVHSRSLRIGANRRTEIIEDLAFYSSTVVSLLMTCVEKAGTDEKMLMKVFRCLGSWFNLGVLDSNFMANNKLLALLFEVLQQDKTSSNLHEAASDCVCSALYAIENVETNLPLAMQLFQGVLTLETAYHMAVAREDLDKVLNYCRIFTELCETFLEKIVCTPGQGLGDLRTLELLLICAGHPQYEVVEISFNFWYRLGEHLYKTNDEVIHGIFKAYIQRLLHALARHCQLEPDHEGVPEETDDFGEFRMRVSDLVKDLIFLIGSMECFAQLYSTLKEGNPPWEVTEAVLFIMAAIAKSVDPENNPTLVEVLEGVVRLPETVHTAVRYTSIELVGEMSEVVDRNPQFLDPVLGYLMKGLCEKPLASAAAKAIHNICSVCRDHMAQHFNGLLEIARSLDSFLLSPEAAVGLLKGTALVLARLPLDKITECLSELCSVQVMALKKLLSQEPSNGISSDPTVFLDRLAVIFRHTNPIVENGQTHPCQKVIQEIWPVLSETLNKHRADNRIVERCCRCLRFAVRCVGKGSAALLQPLVTQMVNVYHVHQHSCFLYLGSILVDEYGMEEGCRQGLLDMLQALCIPTFQLLEQQNGLQNHPDTVDDLFRLATRFIQRSPVTLLRSQVVIPILQWAIASTTLDHRDANCSVMRFLRDLIHTGVANDHEEDFELRKELIGQVMNQLGQQLVSQLLHTCCFCLPPYTLPDVAEVLWEIMQVDRPTFCRWLENSLKGLPKETTVGAVTVTHKQLTDFHKQVTSAEECKQVCWALRDFTRLFR
koff: 0.00014 s⁻¹
